Source: paper PMC6805999, “Molecular Mechanism of SR Protein Kinase 1 Inhibition by the Herpes Virus Protein ICP27” (mBio, 2019)
Values joined by “and” are separate entries in the source; they are usually repeats but may differ in a detail not shown here. Equal entries are not always repeated.

B1: WT ICP27: full-length wild-type HSV-1 protein ICP27 expressed from plasmid (protein)
chain: MATDIDMLIDLGLDLSDSDLDEDPPEPAESRRDDLESDSSGECSSSDEDMEDPHGEDGPEPILDAARPAVRPSRPEDPGVPSTQTPRPTERQGPNDPQPAPHSVWSRLGARRPSCSPEQHGGKVARLQPPPTKAQPARGGRRGRRRGRGRGGPGAADGLSDPRRRAPRTNRNPGGPRPGAGWTDGPGAPHGEAWRGSEQPDPPGGQRTRGVRQAPPPLMTLAIAPPPADPRAPAPERKAPAADTIDATTRLVLRSISERAAVDRISESFGRSAQVMHDPFGGQPFPAANSPWAPVLAGQGGPFDAETRRVSWETLVAHGPSLYRTFAGNPRAASTAKAMRDCVLRQENFIEALASADETLAWCKMCIHHNLPLRPQDPIIGTTAAVLDNLATRLRPFLQCYLKARGLCGLDELCSRRRLADIKDIASFVFVILARLANRVERGVAEIDYATLGVGVGEKMHFYLPGACMAGLIEILDTHRQECSSRVCELTASHIVAPPYVHGKYFYCNSLF

Assays:
[1] = biological target: SRPK1; conditions: determined using in vitro phosphorylation assays; read-out: dissociation constant (Kd) of SRSF1 RS domain binding to SRPK1; cited from earlier work
[2] = biological target: T1, GFP-SRPK1 (Homo sapiens, UniProt Q96SB4); test: Coimmunoprecipitation of ICP27 with GFP-SRPK1 (anti-GFP IP, Western blot anti-ICP27); assay type: cell-based; conditions: HeLa cells cotransfected with GFP-SRPK1 and ICP27 plasmid, infected with 27-LacZ for 8 h
T1 construct: expressed in transfected cells; host or cells: HeLa cells, infected with HSV-1 27-LacZ
From the text: (§1) ICP27 mutants were constructed to target sites within the RGG box that contact SRPK1 in the crystal structure. Arginines at positions 142, 144, 146, and 148 were changed to glycine (G) as single (R142G, R146G, or R148G), double (R142G R146G), and quadruple (R142G R144G R146G R148G) substitutions. The ICP27 mutant plasmids were cotransfected with a plasmid expressing green fluorescent protein (GFP)-SRPK1 and subsequently infected with ICP27 null mutant virus 27-LacZ to recapitulate the conditions of infection. At 8 h after infection, lysates were immunoprecipitated with anti-GFP antibody, and samples were analyzed by Western blotting and probed with antibody to ICP27 (Fig. 5A). […] ICP27 interaction with endogenous SRPK1 was also analyzed. Cells were transfected with WT and ICP27 mutant plasmids and infected with 27-LacZ as described above. Immunoprecipitation was performed with anti-ICP27 antibody and the blots were probed with antibody to SRPK1 (Fig. 5B). SRPK1 was only coimmunoprecipitated with WT ICP27 and was not detected with any of the mutants.
(§2) HeLa cells cotransfected with GFP-SRPK1 and WT ICP27 or RGG box mutants were infected for 8 h with 27-LacZ. Immunoprecipitation was performed using anti-GFP antibody. Western blots were probed with anti-GFP or anti-ICP27 antibody and anti-β-actin as a loading control. […] GFP fluorescence was visualized directly. […]

[3] = biological target: T2, endogenous SRPK1 (Homo sapiens, UniProt Q96SB4); test: Coimmunoprecipitation of endogenous SRPK1 with ICP27 (anti-ICP27 IP, Western blot anti-SRPK1); assay type: cell-based; conditions: HeLa cells transfected with ICP27 plasmid, infected with 27-LacZ for 8 h
T2 construct: endogenous in cells; host or cells: HeLa cells
From the text: as §1, §2

[4] = system: GFP-SRPK1; test: Immunofluorescence: cellular localization of GFP-SRPK1; assay type: cell-based, rabbit skin fibroblasts (RSF); conditions: RSF cells cotransfected with GFP-SRPK1 and ICP27 plasmid, infected with 27-LacZ, fixed 6 h later; representative of ∼80% of cells
Experimental: HeLa cells cotransfected with GFP-SRPK1 and WT ICP27 or RGG box mutants were infected for 8 h with 27-LacZ. Immunoprecipitation was performed using anti-GFP antibody. Western blots were probed with anti-GFP or anti-ICP27 antibody and anti-β-actin as a loading control. (B) HeLa cells transfected with WT and ICP27 RGG box mutants were infected with 27-LacZ for 8 h. Immunoprecipitation was performed with anti-ICP27 antibody. Western blots were probed with anti-SRPK1 or anti-ICP27 antibody as indicated and anti-β-actin as a loading control. (C) RSF cells were transfected with GFP-SRPK1 and 16 h later were mock infected, infected with WT HSV-1 or 27-LacZ, or were cotransfected with GFP-SRPK1 and WT ICP27 or ICP27 RGG box mutants and infected 16 later with 27-LacZ. Cells were fixed 6 h later and immunofluorescent staining was performed with anti-ICP27. ICP4 antibody was used to stain the 27-LacZ sample to mark the nucleus. GFP fluorescence was visualized directly. The panels shown are representative of ∼80% of cells visualized. (D) HeLa cells were transfected with GFP-SRPK1 and WT ICP27 or RGG box mutants and were infected with 27-LacZ 16 h after transfection for 8 h. […]
In immunofluorescence experiments, rabbit skin fibroblasts (RSF) were transfected and/or infected as indicated in the legend to Fig. 5. […] GFP fluorescence was viewed directly. […]

[5] = system: SRPK1 phosphorylation of SR proteins; test: In vivo SR protein phosphorylation analysis (Western blot, antiphosphoepitope SR antibody); assay type: cell-based; conditions: HeLa cells cotransfected with GFP-SRPK1 and ICP27 plasmid, infected with 27-LacZ for 8 h
Experimental: HeLa cells cotransfected with GFP-SRPK1 and WT ICP27 or RGG box mutants were infected for 8 h with 27-LacZ. Immunoprecipitation was performed using anti-GFP antibody. Western blots were probed with anti-GFP or anti-ICP27 antibody and anti-β-actin as a loading control. (B) HeLa cells transfected with WT and ICP27 RGG box mutants were infected with 27-LacZ for 8 h. Immunoprecipitation was performed with anti-ICP27 antibody. Western blots were probed with anti-SRPK1 or anti-ICP27 antibody as indicated and anti-β-actin as a loading control. (C) RSF cells were transfected with GFP-SRPK1 and 16 h later were mock infected, infected with WT HSV-1 or 27-LacZ, or were cotransfected with GFP-SRPK1 and WT ICP27 or ICP27 RGG box mutants and infected 16 later with 27-LacZ. Cells were fixed 6 h later and immunofluorescent staining was performed with anti-ICP27. ICP4 antibody was used to stain the 27-LacZ sample to mark the nucleus. GFP fluorescence was visualized directly. The panels shown are representative of ∼80% of cells visualized. (D) HeLa cells were transfected with GFP-SRPK1 and WT ICP27 or RGG box mutants and were infected with 27-LacZ 16 h after transfection for 8 h. Portions of cell lysates were fractionated by SDS-PAGE, and Western blots were probed with antiphosphoepitope SR antibody, anti-SF2 (SRSF1), anti-ICP27 antibody, and anti-lamin B1 antibody as a loading control. […]

T2 sequence (Q96SB4 whole entry): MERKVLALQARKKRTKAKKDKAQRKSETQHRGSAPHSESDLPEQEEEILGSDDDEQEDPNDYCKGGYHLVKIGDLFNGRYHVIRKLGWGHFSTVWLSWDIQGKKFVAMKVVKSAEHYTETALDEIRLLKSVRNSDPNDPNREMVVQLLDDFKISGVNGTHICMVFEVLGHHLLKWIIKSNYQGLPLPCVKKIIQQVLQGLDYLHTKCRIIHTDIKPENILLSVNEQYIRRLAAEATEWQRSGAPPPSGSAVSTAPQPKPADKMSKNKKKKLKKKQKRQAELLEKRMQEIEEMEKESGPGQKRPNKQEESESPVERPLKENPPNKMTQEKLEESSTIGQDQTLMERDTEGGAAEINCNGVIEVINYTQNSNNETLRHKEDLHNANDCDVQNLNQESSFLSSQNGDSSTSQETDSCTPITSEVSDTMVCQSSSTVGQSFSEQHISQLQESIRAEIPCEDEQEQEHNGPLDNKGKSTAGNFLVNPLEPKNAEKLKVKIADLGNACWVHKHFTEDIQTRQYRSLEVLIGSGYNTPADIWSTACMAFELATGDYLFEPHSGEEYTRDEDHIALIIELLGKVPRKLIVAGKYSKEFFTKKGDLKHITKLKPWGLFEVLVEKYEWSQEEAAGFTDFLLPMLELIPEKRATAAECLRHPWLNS
T1 sequence (Q96SB4 whole entry): as above

| Molecule | Kd [1] | coimmunoprecipitation of ICP27 with GFP-SRPK1 [2] | coimmunoprecipitation of endogenous SRPK1 with ICP27 [3] | cellular localization of SRPK1 [4] | level of phosphorylation for SRp40 (SRSF5) reduced [5] | phosphorylation of SRp30 (SRSF1) reduced [5] |
| --- | --- | --- | --- | --- | --- | --- |
| SRSF1: prototype SR protein, native cellular substrate of SRPK1 | ~50 nM and 50 nM | – | – | – | – | – |
| B1 | – | efficiently coimmunoprecipitated | coimmunoprecipitated | prominently nuclear | reduced | reduced |
